This assay concerns the target T1, Yersinia pestis F1 antigen, cell-expressed (on Y. pestis cells) (Yersinia pestis, UniProt P26948 22-170).
T1 construct: whole, on cells; also called cell-expressed F1 antigen; F1-positive Y. pestis
The experiment in a line: affinity for cell-expressed F1 antigen (method not given).

This passage reports Kd results from patent US11702465 (TRIAD NATIONAL SECURITY, dated 2023).

T1 sequence (P26948 22-170): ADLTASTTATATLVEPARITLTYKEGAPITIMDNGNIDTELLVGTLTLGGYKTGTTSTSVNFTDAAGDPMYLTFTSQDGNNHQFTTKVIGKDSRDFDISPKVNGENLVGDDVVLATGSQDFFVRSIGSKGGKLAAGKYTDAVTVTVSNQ

B1: AM IgG B (antibody, V domains shown)
VH: QVQLVESGGGLVKPGGSLRLSCAASGFTFSDYYMSWIRQAPGKGLEWVSYISGSGSIIYYADSVKGRFTISRDNAKNSLYLQMNSLRAEDTAVYYCAKEIRKHDAFDIWGQGTMVTVSS
VL: DIRMTQSPSSLSASVGDRVTITCRASRSISGYLNWYQQKPGKAPKLLIYATSSLQSGVPSRFSGSGSGTDFTLTISSLQPEDFATYYCQQSYSTPSSFGQGTKVDIKR
notes: also called AM^a IgG B
Consider B1, for which the affinity, expressed as Kd, was 0.09 nM.

B2: AM IgG H (antibody, V domains shown)
VH: QVQLQQWGAGLLKPSETLSLTCAVYGGSFSGYYWSWIRQPPGKGLEWIGEINRSGNTNYNPSLKSRVTISVDTSKNQFSLQLNSVTPEDTAVYYCARTRGYFDLWGRGTLVTVSS
VL: QPVLTQSPSVSVSPGQTASITCSGDKLGGRYASWYQQKPGQSPVLVIYQDTKRPSGIPERFSGSNSGNTATLTISGTQAMDEADYYCQSWDSSAAVFGTGTKLTVLG
notes: also called AM^a IgG H
For B2, the affinity, expressed as Kd, was 0.03 nM.
